Experimental data taken from patent publication US20220396618A1 (RESEARCH FOUNDATION FOR THE STATE UNIVERSITY OF NEW YORK, published 2022).

Experiments:
[1] = biological target: T1, human RAGE extracellular domain (human, UniProt Q15109 23-342); assay: ELISA, apparent Kd
T1 construct: extracellular domain; Immobilized on ELISA plates; also called WT human RAGE

murine RAGE = murine RAGE (murine, UniProt Q62151 23-231, limits assumed); assay: ELISA, apparent Kd
murine RAGE V-C1 domain = biological target: T2, murine RAGE V-C1 domain (murine, UniProt Q62151 23-231, limits assumed); assay: ELISA, apparent Kd
T2 construct: domain: V-C1 domain; Used as the immunogen and as the ELISA antigen; also called mVC1; WT mVC1

[2] = biological target: T3, human RAGE R216A-R218A mutant (human, UniProt Q15109 23-342); assay: ELISA on immobilized antigen
T3 construct: extracellular domain; Mutant of the human RAGE extracellular domain, immobilized for ELISA
Experimental: As shown in the dashed oval, the epitope of B2 mAb includes R216 and R218. Panel B depicts the binding of B2 mAbs to immobilized WT human RAGE or the R216A-R218A mutant as determined by ELISA. The binding of B2 mAbs to R216A-R218A was reduced by 40-fold.
200 ng of human RAGE extracellular domain or R216A-R218A mutant were immobilized onto 96-well high-binding ELISA plate. Plates were blocked with 5% BSA in PBS and incubated with 0.01 to 10 nM of rabbit B2 mAb for 1 hour at room temperature. Bound B2 mAbs were quantitated with anti-rabbit-HRP (Jackson Immunology) followed by the addition of HRP substrate (Thermo Scientific).

T3 sequence (Q15109 23-342 R216A/R218A): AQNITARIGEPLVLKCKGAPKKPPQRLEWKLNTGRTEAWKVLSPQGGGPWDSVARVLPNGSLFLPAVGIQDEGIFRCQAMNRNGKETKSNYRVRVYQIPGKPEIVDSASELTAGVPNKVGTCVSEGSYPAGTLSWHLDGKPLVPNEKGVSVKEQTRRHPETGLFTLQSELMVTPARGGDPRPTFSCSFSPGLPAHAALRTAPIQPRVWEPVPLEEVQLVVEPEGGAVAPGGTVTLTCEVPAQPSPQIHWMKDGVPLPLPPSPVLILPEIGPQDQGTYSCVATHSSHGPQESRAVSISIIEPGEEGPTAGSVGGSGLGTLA
T1 sequence (Q15109 23-342): as the sequence (Q15109 23-342 R216A/R218A) above, with A194R, A196R counted along it
T2 sequence (Q62151 23-231 limits assumed): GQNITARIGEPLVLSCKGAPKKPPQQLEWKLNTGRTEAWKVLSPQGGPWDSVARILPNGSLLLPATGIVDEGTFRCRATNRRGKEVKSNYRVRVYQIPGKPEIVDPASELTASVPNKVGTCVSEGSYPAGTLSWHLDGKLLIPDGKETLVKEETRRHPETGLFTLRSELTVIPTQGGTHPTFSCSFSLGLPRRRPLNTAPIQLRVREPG
Sequence of murine RAGE (Q62151 23-231 limits assumed): as above

B1: rabbit B2 mAb (antibody, V domains shown)
VH: QSVKESEGGLFKPTDTLTLTCTVSGFTISSYDMSWVRQAPGKGLEWIGAIDSSGSAHYASWARSRSTITRNTNLNTVTLKMTSLTAADTATYFCWNANIWGPGTLVTVSS
VL: AQVLTQTASPVSAAVGSTVTINCQASQNVYDNNHLSWYQQKRGQPPKLLIYYASALASGVSSRFKGSGSGTQFTLTINDVQCDDAATYYCLGSYDCSADCFAFGGGTEVVV
notes: Rabbit monoclonal antibody from a hybridoma; also called B2 mAbs; rabbit mAb B2
With B1 the Kd [1] was 80 pM, the Kd (murine RAGE) was 30 pM and the Kd (murine RAGE V-C1 domain) was 80 pM. The “fold reduction of binding against WT human RAGE” value [2] was 40 fold.
